The values below come from the supplement of paper PMC9112550, “Optimization of the antimicrobial peptide Bac7 by deep mutational scanning” (BMC Biology, 2022).
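Also: peptides expressed intracellularly from a pBAD plasmid library in pooled LB shake-flask culture, induced with 0.3% L-arabinose, DNA abundance read by NGS, three biological replicates, DESeq2 with apeglm shrinkage.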

The data set concerns Escherichia coli TOP10. Description: shrunken log2 fold change of peptide-encoding DNA abundance (4.5 h post-induction vs induction); higher = less antimicrobial activity (less host growth inhibition). The settings on record: time post-induction: 4.5 h; library: site-saturation at positions 5, 18, 19, 20.
As for RRIRGRPPRLPRPRPRPDRTPRP, the “shrunken log2 fold change” value was -0.0561. For RRIRPRPPRLPRPRPRPETHPRP, the “shrunken log2 fold change” value was 0.221.

On to RRIRKRPPRLPRPRPRPCHGPRP, for which the “shrunken log2 fold change” value turned out to be 0.0847. Under RRIRRRPPRLPRPRPRPTKDPRP stands 0.209. The value for RRIRERPPRLPRPRPRPASGPRP was 0.133; that for RRIRCRPPRLPRPRPRPRIYPRP was -0.0107. Take RRIRWRPPRLPRPRPRPWHQPRP: the “shrunken log2 fold change” value is 0.00792. In the case of RRIRNRPPRLPRPRPRPLWLPRP, the “shrunken log2 fold change” value was -0.181. Consider RRIRSRPPRLPRPRPRPEKTPRP, for which the “shrunken log2 fold change” value is 0.125.

As to RRIRYRPPRLPRPRPRPMVRPRP, the “shrunken log2 fold change” value is -0.0135. The value for RRIRLRPPRLPRPRPRPGVCPRP was 0.195; that for RRIRLRPPRLPRPRPRPYIHPRP was -1.05. Under RRIRLRPPRLPRPRPRPKIPPRP stands -0.292; under RRIRVRPPRLPRPRPRPDTPPRP, -0.0915; under RRIRRRPPRLPRPRPRPIVGPRP, 0.0287. For the sequence RRIRFRPPRLPRPRPRPQPRPRP, the “shrunken log2 fold change” value was found to be 0.541. Take RRIRDRPPRLPRPRPRPWMWPRP: the “shrunken log2 fold change” value worked out at 0.00708. The value for RRIRTRPPRLPRPRPRPSKIPRP was -0.24; that for RRIRWRPPRLPRPRPRPCYAPRP was -0.345. RRIRGRPPRLPRPRPRPMHNPRP: the “shrunken log2 fold change” value is 0.383. Turning to RRIRHRPPRLPRPRPRPARMPRP, the “shrunken log2 fold change” value was -0.0768. Under RRIRERPPRLPRPRPRPVKLPRP stands -0.0426. For the sequence RRIRERPPRLPRPRPRPLAKPRP, the “shrunken log2 fold change” value is 0.0848.

As for RRIRIRPPRLPRPRPRPFINPRP, the “shrunken log2 fold change” value was -0.365.

For RRIRGRPPRLPRPRPRPWWAPRP, the “shrunken log2 fold change” value worked out at 0.193. On to RRIRLRPPRLPRPRPRPWPTPRP, for which the “shrunken log2 fold change” value worked out at 0.0538. Under RRIRPRPPRLPRPRPRPWSSPRP stands -0.977. The value for RRIRNRPPRLPRPRPRPLTIPRP was -0.389; that for RRIRKRPPRLPRPRPRPHTRPRP was 0.29; that for RRIRWRPPRLPRPRPRPHCAPRP was -0.0143. Under RRIRDRPPRLPRPRPRPDVLPRP stands 0.0169.

As to RRIRTRPPRLPRPRPRPLLKPRP, the “shrunken log2 fold change” value is -0.336. RRIRTRPPRLPRPRPRPFRAPRP: the “shrunken log2 fold change” value is -0.597.

For the sequence RRIRRRPPRLPRPRPRPEVRPRP, the “shrunken log2 fold change” value amounted to 0.176. For the sequence RRIRARPPRLPRPRPRPKCPPRP, the “shrunken log2 fold change” value is -0.0505. Under RRIRNRPPRLPRPRPRPEVDPRP stands 0.478; under RRIRARPPRLPRPRPRPGKQPRP, 0.292; under RRIRGRPPRLPRPRPRPSFEPRP, 0.647. As for RRIRRRPPRLPRPRPRPRQMPRP, the “shrunken log2 fold change” value came out at 0.313. Take RRIRCRPPRLPRPRPRPWIDPRP: the “shrunken log2 fold change” value was -0.00146. The value for RRIRQRPPRLPRPRPRPVKNPRP was 0.142; that for RRIRSRPPRLPRPRPRPEAMPRP was 1.09.

In the case of RRIRYRPPRLPRPRPRPKEEPRP, the “shrunken log2 fold change” value was -0.0656. Under RRIRSRPPRLPRPRPRPIIPPRP stands -0.188; under RRIRCRPPRLPRPRPRPCRHPRP, -0.196; under RRIRYRPPRLPRPRPRPKAGPRP, -0.118. Under RRIRDRPPRLPRPRPRPDWMPRP stands 0.0771; under RRIRQRPPRLPRPRPRPVITPRP, -0.414. For the sequence RRIRSRPPRLPRPRPRPLHVPRP, the “shrunken log2 fold change” value is -0.245. As for RRIRFRPPRLPRPRPRPFRHPRP, the “shrunken log2 fold change” value is 0.0504. For RRIRTRPPRLPRPRPRPDIIPRP, the “shrunken log2 fold change” value is -0.232.

On to RRIRARPPRLPRPRPRPMSSPRP, for which the “shrunken log2 fold change” value turned out to be 0.0476. Under RRIRQRPPRLPRPRPRPAYDPRP stands -0.0146; under RRIRWRPPRLPRPRPRPYYYPRP, -0.473. With RRIRSRPPRLPRPRPRPKSVPRP, the “shrunken log2 fold change” value was -0.0236. For the sequence RRIRPRPPRLPRPRPRPHFQPRP, the “shrunken log2 fold change” value came to 0.0551. Under RRIRVRPPRLPRPRPRPIRPPRP stands -0.0154. Turning to RRIRHRPPRLPRPRPRPKYSPRP, the “shrunken log2 fold change” value is -0.489. For RRIRRRPPRLPRPRPRPIFRPRP, the “shrunken log2 fold change” value was 0.584. The value for RRIRERPPRLPRPRPRPTSNPRP was -0.504; that for RRIRARPPRLPRPRPRPIMCPRP was -0.0139; that for RRIRGRPPRLPRPRPRPVVTPRP was -0.216.
